Data reported in US20250215081A1.
Substitutions are numbered along the chain they refer to.

B1: anti-CD3 antibody CD3hi (mAb) (antibody, V domains shown)
VH: EVQLVESGGGLVQPGGSLKLSCAASGFTFNTYAMNWVRQASGKGLEWVGRIRSKYNNYATYYADSVKDRFTISRDDSKSTLYLQMNSLKTEDTAVYYCVRHGNFGNSYVSWFAYWGQGTLVTVSS
VL: QAVVTQEPSLTVSPGGTVTLTCRSSTGAVTTSNYANWVQQKPGQAPRGLIGGTNKRAPWTPARFSGSLLGDKAALTLSGAQPEDEAEYFCALWYSNLWVFGGGTKLTVL
B2: anti-CD3 antibody CD3med (mAb) (antibody, V domains shown)
VH: B1 VH with S79N, L81A, Y114H
VL: B1 VL with R23G, T31S, D71G, F89Y
B3: anti-CD3 antibody CD3lo (mAb) (antibody, V domains shown)
VH: B1 VH with L81A
VL: B1 VL

Columns and labels:
[1] = target: human Fc gamma receptor 1A (human) (UniProt P12314); experiment: SPR (Biacore T200), antibody amine-coupled on CM5 (~950 RU), FcγR1A as analyte
Chain of UniProt P12314 (P12314 16-288 limits assumed): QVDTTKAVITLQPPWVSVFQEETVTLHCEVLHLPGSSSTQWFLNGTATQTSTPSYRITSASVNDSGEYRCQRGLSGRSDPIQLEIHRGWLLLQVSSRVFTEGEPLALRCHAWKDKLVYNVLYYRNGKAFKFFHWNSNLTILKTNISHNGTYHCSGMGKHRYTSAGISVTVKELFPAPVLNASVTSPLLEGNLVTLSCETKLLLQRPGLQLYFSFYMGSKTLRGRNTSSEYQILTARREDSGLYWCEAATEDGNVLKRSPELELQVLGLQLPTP

CD3-Fc = experiment: SPR (Biacore T200, 25 C), CD3-Fc captured on anti-hFc CM5 chip, antibody as analyte, 1:1 model

Molecule | Maximum response at 100 nM hFcgammaRIA (RU) [1] [RU] | Kd (CD3-Fc) [nM]
Anti-CD3 DANAPA-IgG1 (D265A/N297A/P329A) (antibody) | 11 | 
Anti-CD3 DAPASK-IgG1 (D265A/P329A/S267K) (antibody) | 13 | 
Anti-CD3 GADAPA-IgG1 (G237A/D265A/P329A) (antibody) | 16 | 
Anti-CD3 GADAPASK-IgG1 (G237A/D265A/P329A/S267K) (antibody) | 10 | 
Anti-CD3 LALAGA-IgG1 (L234A/L235A/G237A) (antibody) | 15 | 
Anti-CD3 LALAPG-IgG1 (L234A/L235A/P329G) (antibody) | 18 | 
Anti-CD3 LALASKPA-IgG1 (L234A/L235A/S267K/P329A) (antibody) | 9 | 
B1 |  | 16
B2 |  | 30
B3 |  | 48
